# Marks after values point to notes of the source that are not given here.
# System: normal human keratinocyte monolayer (NHK)
# Assay: Scratch assay, migration of NHK
# Format: cell-based
# Details: EGF 100 ng/ml; 5 hours
# Method: Scratch Assay: a lesion was performed on a mat of normal human keratinocyte monolayer (NHK) at confluence before treatment with BCP extract at 0.01% and 0.05% dry matter or with EGF (Epidermal Growth Factor) at 100 ng/ml. A photo was taken at the start of treatment and after 5 hours of incubation in order to measure the rate of progression of the HCNs within the lesion. The percentage of coverage was evaluated under the different conditions by image analysis. The significance of the results was assessed by Student's t test.
molecule,measurement,value
"EGF: Epidermal Growth Factor, reference in the scratch assay (protein, UniProt P01133 23-1207, looked up, Pro-epidermal growth factor) Pro-epidermal growth factor: PQHWSCPEGTLAGNGNSTCVGPAPFLIFSHGNSIFRIDTEGTNYEQLVVDAGVSVIMDFHYNEKRIYWVDLERQLLQRVFLNGSRQERVCNIEKNVSGMAINWINEEVIWSNQQEGIITVTDMKGNNSHILLSALKYPANVAVDPVERFIFWSSEVAGSLYRADLDGVGVKALLETSEKITAVSLDVLDKRLFWIQYNREGSNSLICSCDYDGGSVHISKHPTQHNLFAMSLFGDRIFYSTWKMKTIWIANKHTGKDMVRINLHSSFVPLGELKVVHPLAQPKAEDDTWEPEQKLCKLRKGNCSSTVCGQDLQSHLCMCAEGYALSRDRKYCEDVNECAFWNHGCTLGCKNTPGSYYCTCPVGFVLLPDGKRCHQLVSCPRNVSECSHDCVLTSEGPLCFCPEGSVLERDGKTCSGCSSPDNGGCSQLCVPLSPVSWECDCFPGYDLQLDEKSCAASGPQPFLLFANSQDIRHMHFDGTDYGTLLSQQMGMVYALDHDPVENKIYFAHTALKWIERANMDGSQRERLIEEGVDVPEGLAVDWIGRRFYWTDRGKSLIGRSDLNGKRSKIITKENISQPRGIAVHPMAKRLFWTDTGINPRIESSSLQGLGRLVIASSDLIWPSGITIDFLTDKLYWCDAKQSVIEMANLDGSKRRRLTQNDVGHPFAVAVFEDYVWFSDWAMPSVMRVNKRTGKDRVRLQGSMLKPSSLVVVHPLAKPGADPCLYQNGGCEHICKKRLGTAWCSCREGFMKASDGKTCLALDGHQLLAGGEVDLKNQVTPLDILSKTRVSEDNITESQHMLVAEIMVSDQDDCAPVGCSMYARCISEGEDATCQCLKGFAGDGKLCSDIDECEMGVPVCPPASSKCINTEGGYVCRCSEGYQGDGIHCLDIDECQLGEHSCGENASCTNTEGGYTCMCAGRLSEPGLICPDSTPPPHLREDDHHYSVRNSDSECPLSHDGYCLHDGVCMYIEALDKYACNCVVGYIGERCQYRDLKWWELRHAGHGQQQKVIVVAVCVVVLVMLLLLSLWGAHYYRTQKLLSKNPKNPYEESSRDVRSRRPADTEDGMSSCPQPWFVVIKEHQDLKNGGQPVAGEDGQAADGSMQPTSWRQEPQLCGMGTEQGCWIPVSSDKGSCPQVMERSFHMPSYGTQTLEGGVEKPHSLLSANPLWQQRALDPPHQMELTQ",Evolution compared to the control,+85% **

# From US20230277613A1, “Polysaccharide-Rich Bombax Costatum Flower Extract” (priority 2020, published 2023)
